Measured values taken from patent US20230321261A1, “AXL-SPECIFIC ANTIBODY-DRUG CONJUGATES FOR CANCER TREATMENT” (GENMAB A/S, priority 2016, published 2023).

What was measured:
A431 cells = details: MMAE-conjugated antibodies, 5 days
LCLC-103H cells = test: In vitro cytotoxicity (CellTiter-Glo, 5 days); assay type: cell-based, human; details: MMAE-conjugated antibodies
MDA-MB-231 cells = test: In vitro cytotoxicity (CellTiter-Glo, 5 days); assay type: cell-based, human; details: MMAE-conjugated antibodies
PAXF1657 tumors = test: PAXF1657 pancreas cancer PDX model; assay type: in vivo, NMRI nu/nu mice
A431 tumors = test: A431 xenograft model (high Gas6); assay type: in vivo, SCID mice; details: 3 mg/kg
Method: (§1) Tumor induction was performed by subcutaneous injection of 5 × 10^6 A431 or LCLC-103H tumor cells (both obtained from Leibniz-Institut - Deutsche Sammlung von Mikroorganismen und Zellkulturen GmbH (DSMZ)) in 200 µL PBS in the right flank of female SCID mice. Treatment was started 14-21 days after tumor cell inoculation, when the average tumor size was >100-200 mm^3 and distinct tumor growth was observed. Mice received a single injection or a total of 4 biweekly intraperitoneal injections with IgG1-AXL-vcMMAE ADCs or control antibody (unconjugated IgG1-b12), as indicated. Tumor volume was determined at least two times per week. Tumor volumes (mm^3) were calculated from caliper (PLEXX) measurements as: 0.52 × (length) × (width)^2.

[1] = system: LCLC-103H xenograft tumors; test: LCLC-103H xenograft model; assay type: in vivo, SCID mice
Method: 5 × 10^6 LCLC-103H (large cell lung carcinoma) tumor cells (obtained from Leibniz-Institut DSMZ-Deutsche Sammlung von Mikroorganismen und Zellkulturen GmbH (DSMZ)) in 200 µL PBS were injected subcutaneously in the right flank of female SCID mice. Starting 14-21 days after tumor cell inoculation, when the average tumor size was >100-200 mm^3 and distinct tumor growth was observed, a single injection with 1 mg/kg (20 µg/mouse) IgG1-AXL-vcMMAE antibodies (as described in Supplementary Example 1) or control (unconjugated IgG1-b12) was given intraperitoneally (100 µL/mouse). Tumor volume was determined at least two times per week. Tumor volumes (mm^3) were calculated from caliper (PLEXX) measurements as: 0.52 × (length) × (width)^2.
as §1

B1: IgG1-AXL-148-vcMMAE (conjugate)
VH: EVQLLESGGGLVQPGGSLRLSCAASGFTFSSYAMTWVRQAPGKGLEWVSAISISGGSTFYADSVKGRFTISRDNSKNTLYLQMNSLRAEDTAVYYCRGYSGYVYDAFDFWGQGTMVTVSS
VL: DIQMTQSPSSLSASVGDRVTITCRASQGISNWLAWYQQKPEKAPKSLIYAASSLQSGVPSRFSGSGSGTDFTLTISSLQPEDFATYYCQQYNSYPLTFGGGTKVEIK
A431 cells
  Cytotoxicity EC50 (µg/mL) A431 (n=3) Mean: 0.070 µg/mL
LCLC-103H cells
  Cytotoxicity in LCLC-103H cells EC50: 0.012 µg/mL
MDA-MB-231 cells
  Cytotoxicity EC50 (µg/mL) MDA-MB231 (n=2) Mean: 0.012 µg/mL
PAXF1657 tumors; 2 mg/kg i.v., day 0
  growth of PAXF1657 tumors compared to the control group: significantly reduced the growth
PAXF1657 tumors; 4 mg/kg i.v., day 0
  growth of PAXF1657 tumors: induced tumor regression
PAXF1657 tumors; mouse, in vivo
  anti-tumor activity in the PAXF1657 model (FIG. 10B, 10C): dose-dependent antitumor activity
A431 tumors
  anti-tumor activity in the A431 xenograft model: growth inhibition
[1]; 3 mg/kg (Example 13, FIG. 14A)
  anti-tumor activity in the LCLC-103H xenograft model: tumor regression
[1]; single injection 1 mg/kg intraperitoneally (Example 9)
  anti-tumor activity in established SC LCLC-103H tumors: tumor regression
